Assay results reported in patent publication EP1922329B1.

Biological target: human rhinovirus serotype HRV-39
Test: cell-based or functional assay

| Substance | IC50, CPE assay [µg/mL] | fold lower IC50 than soluble ICAM-1, CPE assay [fold] |
| --- | --- | --- |
| IC1-5D/IgA (ICAM/IgA fusion, gift of Dr. Tim Springer; Martin, et al., 1993) (Fc fusion) | 0.12 | 11.3 |
| soluble ICAM-1 (from UniProt P05362 28-480) (receptor) | 1.35 | – |
